# Experimental data from paper PMC6328254, “Sequential Regulation of Maternal mRNAs through a Conserved cis-Acting Element in Their 3′ UTRs”.
# T1: Pumilio RNA-binding domain (UniProt P25822 1091-1426)
# T1 sequence: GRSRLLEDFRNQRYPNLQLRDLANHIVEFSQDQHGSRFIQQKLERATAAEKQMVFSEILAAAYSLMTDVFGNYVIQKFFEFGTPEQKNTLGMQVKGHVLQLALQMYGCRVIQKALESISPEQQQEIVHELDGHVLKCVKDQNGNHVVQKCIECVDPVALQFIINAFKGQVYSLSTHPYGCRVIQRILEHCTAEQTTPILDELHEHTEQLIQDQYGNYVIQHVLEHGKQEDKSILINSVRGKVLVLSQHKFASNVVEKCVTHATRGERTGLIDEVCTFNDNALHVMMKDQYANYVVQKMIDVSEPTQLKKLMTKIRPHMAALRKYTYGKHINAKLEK
# B1: osk 3'UTR BRE (ssRNA)
# RNA: CUUGAAUGUAUGUUAAUUGUAUGUAUUGAU
# B2: pgc 3'UTR PRE/BRE (ssRNA)
# RNA: UUUGUAAAUU
# B3: pgc 3'UTR PRE mutant UCUC (ssRNA)
# RNA: UUUCUCAAUU
# B4: pgc 3'UTR PRE mutant UUUU (ssRNA)
# RNA: UUUUUUAAUU
# B5: CycB 3'UTR NRE (ssRNA)
# RNA: UAGACUAUUUGUAAUUUAUAUC
# Target: Bruno (UniProt O02374 1-604)
# Test: EMSA; 50 mM Tris pH 7.5, 150 mM NaCl, 2 mM DTT, 0.1 mg/ul BSA (so in the source), 0.001% Igepal CA-630, dIdC and yeast tRNA; 20 min at RT; 6% native PAGE at 4 C
# Details: protein: recombinant; tags: His (pETM-82; purified on His GraviTrap); label: 5'-32P
# Sequence of Bruno (O02374 entry or part of it): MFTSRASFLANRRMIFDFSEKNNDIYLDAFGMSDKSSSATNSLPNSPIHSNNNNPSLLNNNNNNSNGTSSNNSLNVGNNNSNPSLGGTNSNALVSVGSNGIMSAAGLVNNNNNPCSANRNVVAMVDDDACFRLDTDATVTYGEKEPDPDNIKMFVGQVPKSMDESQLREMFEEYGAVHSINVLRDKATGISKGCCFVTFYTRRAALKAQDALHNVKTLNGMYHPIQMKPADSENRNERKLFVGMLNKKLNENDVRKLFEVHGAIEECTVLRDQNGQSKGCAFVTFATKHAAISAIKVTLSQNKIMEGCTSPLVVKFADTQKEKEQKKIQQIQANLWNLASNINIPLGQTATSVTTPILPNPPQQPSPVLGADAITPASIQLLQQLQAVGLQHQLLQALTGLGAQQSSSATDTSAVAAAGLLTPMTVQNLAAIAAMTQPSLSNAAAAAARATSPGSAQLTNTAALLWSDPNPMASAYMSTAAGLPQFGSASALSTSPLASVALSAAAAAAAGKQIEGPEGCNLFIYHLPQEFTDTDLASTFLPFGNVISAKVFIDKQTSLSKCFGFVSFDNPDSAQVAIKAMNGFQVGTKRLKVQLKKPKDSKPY
row,Binder,binding result
1,B1,binds
2,B2,binds
3,B3,no binding
4,B4,no binding

# Target: T1, Pumilio RNA-binding domain
# Test: as above
# Details: protein: recombinant; tags: HaloTag (pFN18K) removed by AcTEV cleavage; label: 5'-32P
row,Binder,binding result
1,B5,binds
2,B2,binds
3,B3,no binding
4,B4,no binding
